Laboratory results: the DeepSol protein solubility set

assay: soluble on expression in E. coli; label from the status in PepcDB or PDB records

Row | Sequence | soluble on expression in E. coli
1 | MIKMIDQYQAFTQSPIGKFVVKNLGLPSPVVLDRFESGQPVIKGAVLMGAAPSSSLTSGIAQVLSNIHADSYAGNNAEIQQAAAQVGLNLRAFNSGDKESKFKAVVFDASGIQNSEQLDELYKFFNPIVRQIESSGRVIVLGTSPESAKTVKQAIAQRALEGFIKSVGKEFKKGITAQVVYVDEGAVNNIESTLRFLLSPRSAYVSGQVIRVSKAEVVQVDWDKPLAGKTALVTGASRGIGEAIAHVLARDGAHVICLDVPQQQVDLDRVASEIGGSALGLDITAADAGEKIKAAAAKQGGLDIIVHNAGITRDKTLANMKSELWDLVININLSAAERINDYLLANDGLNTNGRIVCVSSISGIAGNLGQTNYAVSKAGVIGLVKFTAPILKNGITINAVAPGFIETQMTAAIPFAIREAGRRMNSMNQGGLPVDVAETISWFAATGSTGINGNVVRVCGQSLLGALEHHHHHH | soluble
2 | MLSQLREIVEKVSRVDDVHLALDILVKETCAALRTECCTIYLANEEMQRLELMATQGLIFEGDSIHINFNEGLVGLVKRSAEPLNLAEASKHPEFKFFPQLGEQVYHSFLATPIIHRKQVLGVLVIQQKTPRLFSEMEESFLVTLSAQLAVIIAHAQSLGHWQ | not soluble
3 | MMKRARIIYNPTSGRELFKKSLPEVLQKLEQAGYEASCHATTGPGDATVAARQAADRKFDVVIAAGGDGTLNEVVNGLVGHEHRPKFGIIPVGTTNDFARAIGVPRSIEEAADIICEGKTVPLDLGRANDTYFINIAGGGRITELTYEVPSKLKTVLGQLAYYLKGIEMLPSLHPTYVEIEYDGKLLQEEITMFLITNTRSVGGFEKVAPYASINDGLFDLLVLKKGSIADLIKAATQAQRGEHINNPKVLYTQANRIKVHSPDKLMINLDGEYGGDAPMEFENIYHCLELFVPEHQEDAL | not soluble
4 | MAHHHHHHMILKEFCAEGYERIPEAIAAGAQRVELCARLDVGGVTPSADTIQNTVEYCHSRNAMVMVIIRCREGNFYYSDEEFQVMLKSVILARRLGADGVVFGAIDTLGNVDPRISILLSAAKGMSLTFHMAFDEIPTEKQFQAIDALTAYGFHRILTHGGSASTNIEENLDWLKELVLYAKNRISIMPGGGVTNLNAEKIARDLGVTEVHGTRVVRFV | not soluble
5 | MGSDKIHHHHHHVAPSIRARSAGRDETEFDFMMTDPLALAKRLIALRARIVATFNAGNWEEVGLLSGQSKIITGHDRLLRSLSWHDEDYEGNVLTVLRRISDRDVRALDVIEEYLNEKFPGEEKTEYVSAKPSERKITFAPNVFQIPDGSVESDLVAVMMPFSPEFKPVYEAMKRACTANSLRSMRVDDMWQDSVIVQDIFSLIFRAQVVVVDFSRKNPNVMYETGIAHTLGKHVVPIAQTIDDVPFDMRHHRTLLYLANGEGLQQLERELAAKLKQFGGGGPPIINLGFSR | not soluble
6 | MSLKISDGNWLIQPGLNLIHPLQVFEVEQQDNEMVVYAAPRDVRERTWQLDTPLFTLRFFSPQEGIVGVRIEHFQGALNNGPHYPLNILQDVKVTIENTERYAEFKSGNLSARVSKGEFWSLDFLRNGERITGSQVKNNGYVQDTNNQRNYMFERLDLGVGETVYGLGERFTALVRNGQTVETWNRDGGTSTEQAYKNIPFYMTNRGYGVLVNHPQCVSFEVGSEKVSKVQFSVESEYLEYFVIDGPTPKAVLDRYTRFTGRPALPPAWSFGLWLTTSFTTNYDEATVNSFIDGMAERNLPLHVFHFDCFWMKAFQWCDFEWDPLTFPDPEGMIRRLKAKGLKICVWINPYIGQKSPVFKELQEKGYLLKRPDGSLWQWDKWQPGLAIYDFTNPDACKWYADKLKGLVAMGVDCFKTDFGERIPTDVQWFDGSDPQKMHNHYAYIYNELVWNVLKDTVGEEEAVLFARSASVGAQKFPVHWGGDCYANYESMAESLRGGLSIGLSGFGFWSHDIGGFENTAPAHVYKRWCAFGLLSSHSRLHGSKSYRVPWAYDDESCDVVRFFTQLKCRMMPYLYREAARANARGTPMMRAMMMEFPDDPACDYLDRQYMLGDNVMVAPVFTEAGDVQFYLPEGRWTHLWHNDELDGSRWHKQQHGFLSLPVYVRDNTLLALGNNDQRPNYVWHEGTAFHLFNLQDGHEAVCEVPAADGSVIFTLKAARTGNTITVTGAGEAKNWTLCLRNVVKVNGLQDGSQAESEQGLVVKPQGNALTITLEGGSHHHHHH | soluble
7 | SLYAISISERTLEKVNAIIESEIKPNAYLASGDLLVHTSRLFMDTPYQANTLVHHSDLPYALVVNFDGMDCFTYLDYVVALSQASDTPSFFSSLMNIRYKKSHIHFYDRKHFFSDWYALSPQIAIDITEKMSPDAITIPKQLNQKVEGGEYIQGLGVIPRMITYIPSDKITQSVLDNLQNGDLVGVYSPKIGLDVTHTGIIVKENNQILYRNASSLSKYNKVVDLPFMDYIRSKPGIVVLRVE | soluble
8 | MGIIDKIKAIEEEMARTQKNKATEHHLGLLKGKLARYRQQLLADEAGSGGGGGSGFEVAKSGDARVVLIGYPSVGKSSLLGKITTTKSEIAHYAFTTLTSVPGVLKYQGAEIQIVDLPGIIYGASQGKGRGRQVVATARTADLVLMVLDATKSEHQRASLEKELENVGIRLNKEKPNIYYKKKETGGVKVTFTSPPKTNLTEQAIKMILRDYRIHNAEVLVRDDQCTIDDFIDVINEQHRNYVKCLYVYNKIDAVSLEEVDKLAREPNTVVMSCEMDLGLQDVVEEIWYQLNLSRVYTKKRGVRPVFDDPLVVRNNSTIGDLCHGIHRDFKDKFKYALVWGSSAKHSPQKCGLNHRIDDEDVVSLFAK | soluble
9 | MSETKNITVPEINKTVEQMLIKGRWLDALDFWINNTDSLVLIRWLAQFISQLSPEEDSLLLQSIVRWKEGDDEQRWEIFRHAESVGFSTQTGALGVSLFVSQGSLSPAPYDPVYAPSCSEKKIIYGILMHQSNKYYDAPDEGVFFLFRHWCNSHS | not soluble
10 | MSTQYETQGYTINNAGRRLVVDPITRIEGHMRCEVNINDQNVITNAVSCGTMFRGLEIILQGRDPRDAWAFVERICGVCTGVHALASVYAIEDAIGIKVPDNANIIRNIMLATLWCHDHLVHFYQLAGMDWIDVLDALKADPRKTSELAQSLSSWPKSSPGYFFDVQNRLKKFVEGGQLGIFRNGYWGHPQYKLPPEANLMGFAHYLEALDFQREIVKIHAVFGGKNPHPNWIVGGMPCAINIDESGAVGAVNMERLNLVQSIITRTADFINNVMIPDALAIGQFNKPWSEIGTGLSDKCVLSYGAFPDIANDFGEKSLLMPGGAVINGDFNNVLPVDLVDPQQVQEFVDHAWYRYPNDQVGRHPFDGITDPWYNPGDVKGSDTNIQQLNEQERYSWIKAPRWRGNAMEVGPLARTLIAYHKGDAATVESVDRMMSALNLPLSGIQSTLGRILCRAHEAQWAAGKLQYFFNKLMTNLKNGNLATASTEKWEPTTWPTECRGVGFTEAPRGALGHWAAIRDGKIDLYQCVVPTTWNASPRDPKGQIGAYEAALMNTKMAIPEQPLEILRTLHSFDPCLACSTHVLGDDGSELISVQVR | not soluble
11 | MSFEEFTPLNEKSLVDYIKSTPALSSKIGADKSDDDLVIKEVGDGNLNFVFIVVGSSGSLVIKQALPYIRCIGESWPMTKERAYFEATTLRKHGNLSPDHVPEVYHFDRTMALIGMRYLEPPHIILRKGLIAGIEYPFLADHMSDYMAKTLFFTSLLYHDTTEHRRAVTEFCGNVELCRLTEQVVFSDPYRVSTFNRWTSPYLDDDAKAVREDSALKLEIAELKSMFCERAQALIHGDLHTGSVMVTQDSTQVIDPEFSFYGPMGFDIGAYLGNLILAFFAQDGHATQENDRKEYKQWILRTIEQTWNLFNKRFIALWDQNKDGPGEAYLADIYNNTEVLKFVQENYMRNLLHDSLGFGAAKMIRRIVGVAHVEDFESIEEDKRRAICERSALEFAKMLLKERRKFKSIGEVVSAIQQQS | soluble
12 | MTAAQGNSNETLFSSYKMGRFDLSHRVVLAPMTRCRALNGVPNAALAEYYAQRTTPGGFLISEGTMVSPGSAGFPHVPGIYSDEQVEAWKQVVEAVHAKGGFIFCQLWHVGRASHAVYQPNGGSPISSTNKPISENRWRVLLPDGSHVKYPKPRALEASEIPRVVEDYCLSALNAIRAGFDGIEIHGAHGYLIDQFLKDGINDRTDQYGGSIANRCRFLKQVVEGVVSAIGASKVGVRVSPAIDHLDATDSDPLSLGLAVVGMLNKLQGVNGSKLAYLHVTQPRYHAYGQTESGRQGSDEEEAKLMKSLRMAYNGTFMSSGGFNKELGMQAVQQGDADLVSYGRLFIANPDLVSRFKIDGELNKYNRKTFYTQDPVVGYTDYPFLAPFSRL | soluble
13 | MGSDKIHHHHHHMSEALNVDIQEIAKFEKMAATWWDPDGEFKPLHQLNPLRLNYIDQTSGGLFGKKVLDVGCGGGILSESMARLGANVTGIDMGNEPLEVARLHALETGVSLNYERCTAEEHREVNREAYDVVTCMEMLEHVPDPLSVIAACCDMVKPGGYVFFSTINRNLRSYVETILGAEYLLKMLPVGTHDHGKFIRPSELIAMVDQTELLCKDATGVTYNPITGTFRYTSSVEVNYMIATVKPLE | not soluble
14 | SLVKLSTPLRVVTTLPHQPGRTGYIVFKKVPESFRCDSIASFYRRVRRSMGLREAVVFLTAAEVDRPLHEVIDEPETHIIATVGLKPPACPGGTAGAPRPGTINIAVATSAGLSRAGAIDLLRVVAEAKAAAAAEALLPCLHRATGTATDAIAVLHTPGATDFSGFYTRLGGLVGRSLYFALVDAAVARRGPDSLLRALTGMSMEGLLELFRRVYMQSPIPGVPVEEALGRAGRMLERMMRDPNVAALLIAARELDLHGSAGAIPGLSRSGYKGDSKAIVADELLAAALAEYLAGFKGLLATIWVEKLKSMGLADAGLPMFMDDMVSAVVGSLVSRLHDEVREG | soluble
15 | SNAWGLSVERSTYFLAPADRHYLADYARQAEDAWRREGAAGAERFRKELSAKEDTWVALVGPHLESLGSTPLSAEESSHLTFMRKLDWPMSRRLQDELPYVSIEFPGHPEQGRLVIQLPERLLPG | soluble
16 | MSLSENIAAYVGLDVHKETLAVAIAAPERLGEVRYYGTINNEAQAVRRLFQKLQGLYGNILSCYEAGPCGFGLYHQLTAMNIKCQVIAPSRIPKSPTDRIKNDHRDAISLARLLRAGELTPVWIPDLTHEAMRDLIRARAAAKRDSRVARQRILSMLLRTDKHYAGKHWTGKHRTWLANQSFSQPSQQIAFQHYCQSLEQIEDRILQLDQEISRLLPEWSLCNLVCQLQALKGVGQLIAITLVAELGDFSRFSNPKQLMAFLGLVPGEYSSGNSIRPRGITKVGNSELRRLLYEAAWSYRTPAKVGAWLIYYRPDSVTQYSKDIAWKAQQRLCSRYRSLTAKGKKSQVAITAVARELTGFMWDIALAEGHHHHHH | not soluble
17 | MKLMQIRKPLLKSSLLDQNLTEEEVNMKFVQDLLNWVDEMQVQLDRTEWGSDLPSVESHLENHKNVHRAIEEFESSLKEAKISEIQMTAPLKLSYTDKLHRLESQYAKLLNTSRNQERHLDTLHNFVTRATNELIWLNEKEESEVAYDWSERNSSVARKKSYHAELMRELEQKEESIKAVQEIAEQLLLENHPARLTIEAYRAAMQTQWSWILQLCQCVEQHIQE | soluble
18 | MSQYSLQVGLTPEGPCSYLPKQKERLAVVMEQELHTALGYQALIRLGFRRSGETIYKPMCEHCDACKPLRINANQFKPSKSQKRLLNKLSSFRWELKSEMDGNWFDLYERYINTRHKTGSMYPANQKQFFEFSHSHWLTNQFLHIYENETLIAIAVSDVLSDSISAMYTFFEPEHPLSLGTISVLIQLKLCKELSKEWLYPGYQIDDCPAMKYKDQYKPNQKLVNMVWQGLEHHHHHH | soluble
